The values below come from PMC13557712, “Nim1-related kinases regulate septin organization and cytokinesis by modulating Hof1 at the cell division site” (eLife, 2026).

In the experiment the target is T1, GST-Hof1-N-terminus (1–350 aa) (S. cerevisiae, UniProt Q05080 1-350).
T1 construct: Hof1, S. cerevisiae, N-terminal fragment with the F-BAR domain, residues 1-350, amplified from genomic DNA and cloned into pGEX-5X1; also called GST-Hof1^F-BAR; GST-Hof1^(N (1–350)); source: E. coli BL21-DE3, purified on glutathione Sepharose 4B and kept on the resin; not shown: GST, N-terminal, kept
T1 sequence (looked up): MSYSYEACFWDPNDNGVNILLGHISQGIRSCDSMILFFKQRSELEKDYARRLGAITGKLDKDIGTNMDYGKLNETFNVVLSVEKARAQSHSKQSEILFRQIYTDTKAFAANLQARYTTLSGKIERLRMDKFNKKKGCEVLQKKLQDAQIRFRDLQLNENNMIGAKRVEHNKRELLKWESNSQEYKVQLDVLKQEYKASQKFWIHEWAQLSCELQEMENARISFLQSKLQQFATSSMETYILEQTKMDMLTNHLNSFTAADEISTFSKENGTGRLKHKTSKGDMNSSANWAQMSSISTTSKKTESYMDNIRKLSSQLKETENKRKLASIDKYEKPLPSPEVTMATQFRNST
Nature of the experiment: pull-down; GST-Hof1 (1-350) (~3 µg) on glutathione beads mixed with ~1 µg 6His-bdSUMO-Gin4-KA1; PBS, 0.2% NP-40, 1 hr at 4°C; washed with PBS, 1% NP-40; western blot with anti-His and anti-GST. The following applies: both partners purified. In general terms: Immunoblotting shows a protein as a band on a membrane.

B1: 6His-bdSUMO-Gin4-KA1 (1003–1142 aa) (domain or fragment, S. cerevisiae, UniProt Q12263 1003-1142, looked up)
chain: GSQAKDHSKDHLKEHKQDKNTAIGNGSFFRKFSKSSDKTMELYAKISAKQLFNGLEKLLRGWTQYGLKNIKSHPNNLTLTGKLSSDNIFSLRSTLFEVNIYPRGKMSVVQFKKVSGSFKAVKKLVNEVENVLNKEGVLQK
notes: also called 6xHis-bdSUMO-Gin4^KA1; source: E. coli BL21-DE3, purified (Ni-NTA, buffer exchange); not shown: His6, N-terminal, kept; bdSUMO, N-terminal, kept
In the case of B1, the binding result is on record as “binds”.
